Results published in the supplement of paper PMC11908140.

B1: library; numbered along this chain (parent)
chain: MRKPRAAVGSGHRKQAASQEGRQKHAKNNSQAKPSACDGLARQPEEVVLQASVSSYHLFRDVAEVTAFRGSLLSWYDQEKRDLPWRRRAEDEMDLDRRAYAVWVSEVMLQQTQVATVINYYTGWMQKWPTLQDLASASLEEVNQLWAGLGYYSRGRRLQEGARKVVEELGGHMPRTAETLQQLLPGVGRYTAGAIASIAFGQATGVVDGNVARVLCRVRAIGADPSSTLVSQQLWGLAQQLVDPARPGDFNQAAMELGATVCTPQRPLCSQCPVESLCRARQRVEQEQLLASGSLSGSPDVEECAPNTGQCHLCLPPSEPWDQTLGVVNFPRKASRKPPREESSATCVLEQPGALGAQILLVQRPNSGLLAGLWEFPSVTWEPSEQLQRKALLQELQRWAGPLPATHLRHLGEVVHTFSHIKLTYQVYGLALEGQTPVTTVPPGARWLTQEEFHTAAVSTAMKKVFRVYQGQQPGTCMGSKRSQVSSPCSRKKPRMGQQVLDNFFRSHISTDAHSLNSAAQ

Variants of: B1
Assay: 8OG:A repair function score (normalized; synonymous = 0, nonsense = -1) (normalized log-likelihood score); higher = more repair activity (WT-like)
Conditions: with 8OG:A DNA repair reporter (GFP) in HEK-293 MUTYH KO cells
In short: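 With 10 pg/ml doxycycline, MUTYH knockout HEK-293 cells carrying lentiviral MUTYH cDNA NNN codon-scan libraries were co-transfected with mCherry and an 8OG:A GFP repair reporter. Viable mCherry+ cells were sorted into GFP+ (repair) and GFP− bins at 72 h, three replicates per tile, and tile amplicons were sequenced. Per-tile Rosace fitness scores were then normalized into a repair function score anchored on synonymous and nonsense distributions. Medians were fixed at 0 for synonymous and -1 for nonsense, excluding variants under 300 counts per million at the start.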
For MRKPRAAVGSGHRKQAASQEGRQKHAKNNSQAKPSACDGLARQPEEVVLQASVSSYHLFRDVAEVTAFRGSLLSWYDQEKRDLPWRRRAEDEMDLDRRAYAVWVSEVMLQQTQVATVINYYTGWMQKWPTLQDLASASLEEVNQLWAGLGYYSRHRRLQEGARKVVEELGGHMPRTAETLQQLLPGVGRYTAGAIASIAFGQATGVVDGNVARVLCRVRAIGADPSSTLVSQQLWGLAQQLVDPARPGDFNQAAMELGATVCTPQRPLCSQCPVESLCRARQRVEQEQLLASGSLSGSPDVEECAPNTGQCHLCLPPSEPWDQTLGVVNFPRKASRKPPREESSATCVLEQPGALGAQILLVQRPNSGLLAGLWEFPSVTWEPSEQLQRKALLQELQRWAGPLPATHLRHLGEVVHTFSHIKLTYQVYGLALEGQTPVTTVPPGARWLTQEEFHTAAVSTAMKKVFRVYQGQQPGTCMGSKRSQVSSPCSRKKPRMGQQVLDNFFRSHISTDAHSLNSAAQ [G155H], the “8OG:A repair function score” value was -0.388. MRKPRAAVGSGHRKQAASQEGRQKHAKNNSQAKPSACDGLARQPEEVVLQASVSSYHLFRDVAEVTAFRGSLLSWYDQEKRDLPWRRRAEDEMDLDRRAYAVWVSEVMLQQTQVATVINYYTGWMQKWPTLQDLASASLEEVNQLWAGLGYYSRFRRLQEGARKVVEELGGHMPRTAETLQQLLPGVGRYTAGAIASIAFGQATGVVDGNVARVLCRVRAIGADPSSTLVSQQLWGLAQQLVDPARPGDFNQAAMELGATVCTPQRPLCSQCPVESLCRARQRVEQEQLLASGSLSGSPDVEECAPNTGQCHLCLPPSEPWDQTLGVVNFPRKASRKPPREESSATCVLEQPGALGAQILLVQRPNSGLLAGLWEFPSVTWEPSEQLQRKALLQELQRWAGPLPATHLRHLGEVVHTFSHIKLTYQVYGLALEGQTPVTTVPPGARWLTQEEFHTAAVSTAMKKVFRVYQGQQPGTCMGSKRSQVSSPCSRKKPRMGQQVLDNFFRSHISTDAHSLNSAAQ [G155F] was tested, and the “8OG:A repair function score” value was -0.526. MRKPRAAVGSGHRKQAASQEGRQKHAKNNSQAKPSACDGLARQPEEVVLQASVSSYHLFRDVAEVTAFRGSLLSWYDQEKRDLPWRRRAEDEMDLDRRAYAVWVSEVMLQQTQVATVINYYTGWMQKWPTLQDLASASLEEVNQLWAGLGYYSRIRRLQEGARKVVEELGGHMPRTAETLQQLLPGVGRYTAGAIASIAFGQATGVVDGNVARVLCRVRAIGADPSSTLVSQQLWGLAQQLVDPARPGDFNQAAMELGATVCTPQRPLCSQCPVESLCRARQRVEQEQLLASGSLSGSPDVEECAPNTGQCHLCLPPSEPWDQTLGVVNFPRKASRKPPREESSATCVLEQPGALGAQILLVQRPNSGLLAGLWEFPSVTWEPSEQLQRKALLQELQRWAGPLPATHLRHLGEVVHTFSHIKLTYQVYGLALEGQTPVTTVPPGARWLTQEEFHTAAVSTAMKKVFRVYQGQQPGTCMGSKRSQVSSPCSRKKPRMGQQVLDNFFRSHISTDAHSLNSAAQ [G155I] was tested, and the “8OG:A repair function score” value was -0.489. For MRKPRAAVGSGHRKQAASQEGRQKHAKNNSQAKPSACDGLARQPEEVVLQASVSSYHLFRDVAEVTAFRGSLLSWYDQEKRDLPWRRRAEDEMDLDRRAYAVWVSEVMLQQTQVATVINYYTGWMQKWPTLQDLASASLEEVNQLWAGLGYYSRERRLQEGARKVVEELGGHMPRTAETLQQLLPGVGRYTAGAIASIAFGQATGVVDGNVARVLCRVRAIGADPSSTLVSQQLWGLAQQLVDPARPGDFNQAAMELGATVCTPQRPLCSQCPVESLCRARQRVEQEQLLASGSLSGSPDVEECAPNTGQCHLCLPPSEPWDQTLGVVNFPRKASRKPPREESSATCVLEQPGALGAQILLVQRPNSGLLAGLWEFPSVTWEPSEQLQRKALLQELQRWAGPLPATHLRHLGEVVHTFSHIKLTYQVYGLALEGQTPVTTVPPGARWLTQEEFHTAAVSTAMKKVFRVYQGQQPGTCMGSKRSQVSSPCSRKKPRMGQQVLDNFFRSHISTDAHSLNSAAQ [G155E], the “8OG:A repair function score” value was -0.691. With MRKPRAAVGSGHRKQAASQEGRQKHAKNNSQAKPSACDGLARQPEEVVLQASVSSYHLFRDVAEVTAFRGSLLSWYDQEKRDLPWRRRAEDEMDLDRRAYAVWVSEVMLQQTQVATVINYYTGWMQKWPTLQDLASASLEEVNQLWAGLGYYSRKRRLQEGARKVVEELGGHMPRTAETLQQLLPGVGRYTAGAIASIAFGQATGVVDGNVARVLCRVRAIGADPSSTLVSQQLWGLAQQLVDPARPGDFNQAAMELGATVCTPQRPLCSQCPVESLCRARQRVEQEQLLASGSLSGSPDVEECAPNTGQCHLCLPPSEPWDQTLGVVNFPRKASRKPPREESSATCVLEQPGALGAQILLVQRPNSGLLAGLWEFPSVTWEPSEQLQRKALLQELQRWAGPLPATHLRHLGEVVHTFSHIKLTYQVYGLALEGQTPVTTVPPGARWLTQEEFHTAAVSTAMKKVFRVYQGQQPGTCMGSKRSQVSSPCSRKKPRMGQQVLDNFFRSHISTDAHSLNSAAQ [G155K] the “8OG:A repair function score” value was -0.654. With MRKPRAAVGSGHRKQAASQEGRQKHAKNNSQAKPSACDGLARQPEEVVLQASVSSYHLFRDVAEVTAFRGSLLSWYDQEKRDLPWRRRAEDEMDLDRRAYAVWVSEVMLQQTQVATVINYYTGWMQKWPTLQDLASASLEEVNQLWAGLGYYSRDRRLQEGARKVVEELGGHMPRTAETLQQLLPGVGRYTAGAIASIAFGQATGVVDGNVARVLCRVRAIGADPSSTLVSQQLWGLAQQLVDPARPGDFNQAAMELGATVCTPQRPLCSQCPVESLCRARQRVEQEQLLASGSLSGSPDVEECAPNTGQCHLCLPPSEPWDQTLGVVNFPRKASRKPPREESSATCVLEQPGALGAQILLVQRPNSGLLAGLWEFPSVTWEPSEQLQRKALLQELQRWAGPLPATHLRHLGEVVHTFSHIKLTYQVYGLALEGQTPVTTVPPGARWLTQEEFHTAAVSTAMKKVFRVYQGQQPGTCMGSKRSQVSSPCSRKKPRMGQQVLDNFFRSHISTDAHSLNSAAQ [G155D] the “8OG:A repair function score” value was -0.75.
